Measured values: patent US20050096268A1
Values belong to the substance of their own block, whether it stands above or below them.

Experiments:
human IL-13 (human) [1] = target: human IL-13 (human) (UniProt P35225); assay: Biacore SPR; IL-11R-Ig immobilized, 100 ng/ml human IL-13 injected
human IL-13 (human) [2] = target: human IL-13 (human) (UniProt P35225); assay: Biacore SPR; human IgG1 immobilized, 100 ng/ml human IL-13 injected
murine IL-13 (murine) = murine IL-13 (murine) (UniProt P20109); assay: cell-based or functional assay
Sequence of UniProt P20109 (P20109 21-131 limits assumed): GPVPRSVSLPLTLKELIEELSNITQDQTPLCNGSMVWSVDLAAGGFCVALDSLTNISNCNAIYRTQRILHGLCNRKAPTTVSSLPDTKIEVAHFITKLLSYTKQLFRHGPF

Sequence of UniProt P35225 (P35225 35-146 limits assumed): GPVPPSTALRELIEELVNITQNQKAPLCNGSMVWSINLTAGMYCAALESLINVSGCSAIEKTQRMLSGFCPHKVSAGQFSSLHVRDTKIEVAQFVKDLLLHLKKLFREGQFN

RU bound (human IL-13 (human) [1]): 3.7 RU
Substance: IL-11R-Ig (Fc fusion)

RU bound (human IL-13 (human) [2]): 5.4 RU
Substance: human IgG1 (IgG control) (antibody)

in vitro ID50 in the B9 proliferation assay (murine IL-13 (murine)): 10 ng/mL
Substance: soluble IL-13 receptor α2-Fc fusion protein (sIL-13Rα2-Fc) (from UniProt O88786 22-331)
